Results on nine molecules are retold here after patent publication US20200317776A1 (published 2020).

By Kd is commonly meant the constant that tells how readily two partners part at equilibrium.

The target of experiment [1] is T1, human TREM2 expressed on cells (human, UniProt Q9NZC2 19-230).
T1 construct: BW5147.G.1.4 cells stably expressing human TREM2 together with Dap12, or endogenous TREM2 of primary human myeloid cells; also called huT2 BW; hTREM2 expressing cell line
T1 sequence: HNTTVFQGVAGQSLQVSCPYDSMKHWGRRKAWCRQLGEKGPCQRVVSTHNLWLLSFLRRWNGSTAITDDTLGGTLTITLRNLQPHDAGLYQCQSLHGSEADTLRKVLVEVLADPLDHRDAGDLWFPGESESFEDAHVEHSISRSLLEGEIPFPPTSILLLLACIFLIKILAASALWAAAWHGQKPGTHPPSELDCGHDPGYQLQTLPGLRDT
As to the kind of experiment: FACS, hTREM2 BW cells. From the text:
(§1) To examine cell binding of affinity matured anti-TREM2 antibodies, both primary human monocyte derived dendritic cells and recombinant, human TREM2 expressing cells were utilized. For the latter, BW5147.G.1.4 (ATCC® TIB48™) and HEK293T cells stably expressing human TREM2 together with Dap12 using viral infection were established. For primary human monocyte derived dendritic cells, human monocytes were isolated from whole blood using RosetteSep Human monocyte enrichment cocktail (Stemcell technologies) and Ficoll centrifugation per manufacturer protocols. After lysing red blood cells with ACK lysing buffer, monocytes were resuspended in complete media (RPMI, 10% FBS, Pen/Strep, L-glutamine, HEPES, non-essential amino acid, Sodium pyruvate) with 100 ng/ml human GM-CSF (hu-GMCSF) and, human IL-4 (hu-IL-4) to differentiate dendritic cells for 6 days.
(§2) Cells were harvested by trypsinization (Hek293T) or scraping (BW and dendritic cells), washed in PBS, counted and plated on 96-well U bottom plates at […] cells/well. The plates were spun at 1,400 rpm for 3 minutes and primary TREM2 or control antibodies were added in FACS buffer (PBS+2% FBS) and incubated on ice for one hour. Cells were subsequently centrifuged as before and washed thrice with FACS buffer. Cells were then incubated with anti-human PE conjugated secondary antibody (BD Biosciences) in FACS buffer for 30 minutes on ice. Cells were again washed thrice with FACS buffer and analyzed on a BD FACS Canto or an Intellicyt Flow Cytometer. Binding was measured as mean fluorescence intensity in the APC channel.
In general terms: Flow cytometry measures light scatter and fluorescence of single cells or particles in a stream.

Experiment [2] concerns the target T2, human TREM2 Fc fusion (entire TREM2 ECD; only one Fc arm fused to TREM2) (human, UniProt Q9NZC2 19-174).
T2 construct: also called huTREM2-Fc; recombinant hTREM2
T2 sequence: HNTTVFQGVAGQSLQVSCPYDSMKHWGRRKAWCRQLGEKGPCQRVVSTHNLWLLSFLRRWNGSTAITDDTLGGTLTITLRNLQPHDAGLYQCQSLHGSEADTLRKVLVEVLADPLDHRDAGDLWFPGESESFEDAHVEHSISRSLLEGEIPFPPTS
As to the kind of experiment: BLI, Fab, monovalent.

Experiment [3] addresses T3, cynomolgus monkey TREM2 Fc fusion (entire TREM2 ECD; only one Fc arm fused to TREM2) (cynomolgus monkey, UniProt Q9NZC2 19-174 (human entry)).
T3 construct: also called cyno TREM2-Fc
T3 chain: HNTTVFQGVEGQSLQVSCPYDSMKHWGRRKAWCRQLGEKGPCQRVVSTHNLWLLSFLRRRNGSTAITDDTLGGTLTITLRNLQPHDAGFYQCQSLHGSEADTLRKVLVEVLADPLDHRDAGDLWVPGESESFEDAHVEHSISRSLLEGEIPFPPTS
As to the kind of experiment: BLI, Fab, monovalent. For orientation: BLI is a label-free optical method that tracks binding on a fibre tip over time.

Experiment [4] concerns the target T4, human TREM2/DAP12 fusion protein (human, UniProt O43914 41-113, limits assumed). Briefly: cell-based or functional assay.
In experiment [5] the target is T2, human TREM2 Fc fusion (entire TREM2 …). Briefly: BLI, IgG, avid. The procedure: Briefly, IgGs were loaded on-line onto AHQ sensors, Sensors were equilibrated off-line in assay buffer for 30 minutes and then monitored on-line for 60 seconds for baseline establishment. For avid binding measurement, sensors with loaded IgGs were exposed to 100 nM antigen (human or cynomolgus monkey TREM2 Fe fusion using the entire TREM2 ECD; only one Fc arm was fused to TREM2) for 3 minutes, afterwards they were transferred to assay buffer for 3 minutes for off-rate measurement. Monovalent binding measurements were obtained by loading human TREM2 Fc fusion antigens to AHQ sensor and followed by exposure to 100 nM TREM2 antibody Fab. Kinetics data were fit using a 1:1 binding model in the data analysis software provided by ForteBio. Assay was run at room temperature (25° C.).

Experiment [6] addresses T1, human TREM2 expressed on cells. Briefly: FACS, human DCs.
Excerpt: as §1, §2

In experiment [7] the target is T4, human TREM2/DAP12 fusion protein. As to the kind of experiment: cell-based or functional assay. This is another data set of the same source.
The target of experiment [8] is T1, human TREM2 expressed on cells. As to the kind of experiment: cell-based or functional assay.

B1: AL2p-28 (antibody, V domains shown)
VH: QVQLVQSGAEVKKPGSSVKVSCKASGYAFSSHWMNWVRQAPGQGLEWMGRIYPGVGDTNYAQKFQGRVTITADESTSTAYMELSSLRSEDTAVYYCARLLRNQPGESYAMDYWGQGTLVTVSS
VL: GVVMTQTPLSLSVTPGQPASISCRTSQSLVHSNGYTYLHWYLQKPGQSPQLLIYKVSNRVSGVPDRFSGSGSGTDFTLKISRVEAEDVGVYYCSQSTRVPYTFGQGTKLEIK
notes: Fab and IgG formats under one id
In the case of B1, the Kd in experiment [1] is 2.2 nM; in experiment [2], 7.6 nM; in experiment [3], 7.91 nM; in experiment [5] it was 0.417 nM. Also, the “Luciferase activation plate bound 33 nM IgG, FOC” value in experiment [4] is 9.27 FOC. In addition, the “Luciferase activation soluble 10 nM IgG, FOC” value in experiment [4] turned out to be 2.14 FOC.

B2: AL2p-43 (antibody, V domains shown)
VH: QVQLVQSGAEVKKPGSSVKVSCKASGYAFSSHWMNWVRQAPGQGLEWMGRIYPGGGDTNYARKFRGRVTITADESTSTAYMELSSLRSEDTAVYYCARLLRNQPGASYAMDYWGQGTLVTVSS
VL: GVVMTQTPLSLSVTPGQPASISCRSSRSLVHSNRYTYLHWYLQKPGQSPQLLIYKVSNRRSGVPDRFSGSGSGTDFTLKISRVEAEDVGVYYCSQSTRVPYTFGQGTKLEIK
notes: as for B1
As to B2, the results for the Kd in experiment [1], in experiment [2] and in experiment [3] were 5.01 nM, 0.493 nM and 0.36 nM, respectively. Moreover, the MFI in experiment [6] was 1040 MFI. Besides, in experiment [7], the “BW Luc assay plate bound 7.3 nM IgG, FOC” value stood at 5.41 FOC. Besides, the “BW Luc assay soluble 7.3 nM IgG, FOC” value in experiment [7] is 8.84 FOC.

B3: AL2p-30 (antibody, V domains shown)
VH: QVQLVQSGAEVKKPGSSVKVSCKASGYAFSSQWMNWVRQAPGQGLEWMGRIYPGDGDTNYAWKFQGRVTITADESTSTAYMELSSLRSEDTAVYYCARLLRNQPGESYAMDYWGQGTLVTVSS
VL: GVVMTQTPLSLSVTPGQPASISCRSSSSLVHSNGYTYLHWYLQKPGQSPQLLIYKVSNRKSGVPDRFSGSGSGTDFTLKISRVEAEDVGVYYCSQSTRVPYTFGQGTKLEIK
notes: as for B1
As to B3, the Kd in experiment [1] was 1.2 nM; in experiment [2] it was 6.5 nM; in experiment [3], 5.66 nM; in experiment [5] it was 0.377 nM. Besides, the “Luciferase activation plate bound 33 nM IgG, FOC” value in experiment [4] turned out to be 15.8 FOC. The “Luciferase activation soluble 10 nM IgG, FOC” value in experiment [4] is 2.31 FOC.

B4: AL2p-38 (antibody, V domains shown)
VH: QVQLVQSGAEVKKPGSSVKVSCKASGYAFSSHWMNWVRQAPGQGLEWMGRIYPGGGDTNYAQKFRGRVTITADESTSTAYMELSSLRSEDTAVYYCARLLRNQPGASYAMDYWGQGTLVTVSS
VL: GVVMTQTPLSLSVTPGQPASISCRSSRSLVHSNRYTYLHWYLQKPGQSPQLLIYKVSNRRSGVPDRFSGSGSGTDFTLKISRVEAEDVGVYYCSQSTRVPYTFGQGTKLEIK
notes: as for B1
For the molecule B4, in experiment [1], the Kd was determined as 4.79 nM. In addition, the MFI in experiment [6] was determined as 499 MFI. The molecule further gave a Kd in experiment [2] of 0.623 nM. In addition, the Kd in experiment [3] turned out to be 0.37 nM. In addition, in experiment [7], the “BW Luc assay plate bound 7.3 nM IgG, FOC” value came to 4.47 FOC and the “BW Luc assay soluble 7.3 nM IgG, FOC” value was determined as 4.98 FOC. In experiment [8], the “DC viability (AUC)” value came to 786000 AUC and the “Mac viability (AUC)” value was 39000 AUC.

B5: AL2p-33 (antibody, V domains shown)
VH: EVQLVQSGAEVKKPGSSVKVSCKASGYAFSSSWMNWVRQAPGQGLEWMGRIYPGDGDTNYAQKFQGRVTITADESTSTAYMELSSLRSEDTAVYYCARLLRNQPGESYAMDYWGQGTLVTVSS
VL: GVVMAQTPLSLSVTPGQPASISCRTSQSLVHSNGYTYLHWYLQKPGQSPQLLIYKVSNRVSGVPDRFSGSGSGTDFTLKISRVEAEDVGVYYCSQSTRVPYTFGQGTKLEIK
notes: as for B1
As to B5, the Kd in experiment [1] came out at 4.5 nM; in experiment [2], 10.3 nM; in experiment [3], 0.884 nM; in experiment [5] it was 0.889 nM. In addition, in experiment [4], the “Luciferase activation plate bound 33 nM IgG, FOC” value worked out at 3.21 FOC. Also, the “Luciferase activation soluble 10 nM IgG, FOC” value in experiment [4] was 1.72 FOC.

B6: AL2p-39 (antibody, V domains shown)
VH: QVQLVQSGAEVKKPGSSVKVSCKASGYAFSSHWMNWVRQAPGQGLEWMGRIYPGGGDTNYAQKFRGRVTITADESTSTAYMELSSLRSEDTAVYYCARLLRNQPGASYAMDYWGQGTLVTVSS
VL: GVVMTQTPLSLSVTPGQPASISCRSSRSLVHSNQYTYLHWYLQKPGQSPQLLIYKVSNRRSGVPDRFSGSGSGTDFTLKISRVEAEDVGVYYCSQSTRVPYTFGQGTKLEIK
notes: as for B1
Consider B6, for which the Kd in experiment [1] turned out to be 1.53 nM. The MFI in experiment [6] turned out to be 590 MFI. The Kd in experiment [2] worked out at 0.631 nM. Moreover, the Kd in experiment [3] turned out to be 0.346 nM. Besides, in experiment [7], the “BW Luc assay plate bound 7.3 nM IgG, FOC” value is 8.12 FOC and the “BW Luc assay soluble 7.3 nM IgG, FOC” value turned out to be 3.81 FOC. Also, in experiment [8], the “DC viability (AUC)” value was determined as 851000 AUC and the “Mac viability (AUC)” value is 66900 AUC.

B7: AL2p-41 (antibody, IgG1, V domains shown)
VH: QVQLVQSGAEVKKPGSSVKVSCKASGYAFSSHWMNWVRQAPGQGLEWMGRIYPGEGDTNYAQKFRGRVTITADESTSTAYMELSSLRSEDTAVYYCARLLRNQPGASYAMDYWGQGTLVTVSS
VL: GVVMTQTPLSLSVTPGQPASISCRSSRSLVHSNQYTYLHWYLQKPGQSPQLLIYKVSNRRSGVPDRFSGSGSGTDFTLKISRVEAEDVGVYYCSQSTRVPYTFGQGTKLEIK
notes: as for B1
Turning to B7, the affinity in experiment [1], expressed as Kd, was 1.31 nM. Moreover, the MFI in experiment [6] stood at 534 MFI. Besides, the Kd in experiment [2] stood at 0.724 nM. The molecule further registered a Kd in experiment [3] of 0.352 nM. Moreover, in experiment [7], the “BW Luc assay plate bound 7.3 nM IgG, FOC” value worked out at 7.61 FOC and the “BW Luc assay soluble 7.3 nM IgG, FOC” value amounted to 2.92 FOC. Also, in experiment [8], the “DC viability (AUC)” value came to 860000 AUC and the “Mac viability (AUC)” value is 80700 AUC.

B8: AL2p-32 (antibody, V domains shown)
VH: QVQLVQSGAEVKKPGSSVKVSCKASGYAFSSEWMNWVRQAPGQGLEWMGRIYPGDGDTNYAQKFQGRVTITADESTSTAYMELSSLRSEDTAVYYCARLLRNQPGESYAMDYWGQGTLVTVSS
VL: GVVMTQTPLSLSVTPGQPASISCRSSQSLVHSNGYTYLHWYLQKPGQSPQLLIYKVSNRRSGVPDRFSGSGSGTDFTLKISRVEAEDVGVYYCSQSTRVPYTFGQGTKLEIK
notes: as for B1
Regarding B8, the dissociation constant (Kd) in experiment [1] was 2.8 nM; in experiment [2], 36 nM; in experiment [3], 34.8 nM; in experiment [5], 1.12 nM. Besides, in experiment [4], the “Luciferase activation plate bound 33 nM IgG, FOC” value was determined as 4.9 FOC. For the same molecule, the “Luciferase activation soluble 10 nM IgG, FOC” value in experiment [4] turned out to be 1.47 FOC.

B9: AL2p-40 (antibody, IgG1, V domains shown)
VH: QVQLVQSGAEVKKPGSSVKVSCKASGYAFSSHWMNWVRQAPGQGLEWMGRIYPGGGDTNYAQKFRGRVTITADESTSTAYMELSSLRSEDTAVYYCARLLRNQPGASYAMDYWGQGTLVTVSS
VL: GVVMTQTPLSLSVTPGQPASISCRTSRSLVHSNRYTYLHWYLQKPGQSPQLLIYKVSNRRSGVPDRFSGSGSGTDFTLKISRVEAEDVGVYYCSQSTRVPYTFGQGTKLEIK
notes: as for B1
In experiment [1], B9 came in with a Kd of 2.27 nM. Moreover, the MFI in experiment [6] turned out to be 547 MFI. In experiment [2], this molecule showed a Kd of 0.602 nM. Also, the Kd in experiment [3] worked out at 0.37 nM. For the same molecule, in experiment [7], the “BW Luc assay plate bound 7.3 nM IgG, FOC” value was 8.49 FOC and the “BW Luc assay soluble 7.3 nM IgG, FOC” value came out at 9.92 FOC. In experiment [8], the “DC viability (AUC)” value stood at 825000 AUC and the “Mac viability (AUC)” value was found to be 63200 AUC.
